B1: Pistol ribozyme (parent)
chain: GGGUCGUUGUUCCAUAAUCGCGUGGAUAUGGCACGCAAGUUUCUACCGGGCACCGUAAAUGUCCGACUGGAGCCGUUCGGGCGGCUAUAAACAGACCUCAGGCCCGAAGCGUGGCGGCACCUGCCGCCGGUGGUAAAAAAGAUCGGAAGAGCACACGUCU

Variants of: B1
Assay: aptazyme ON/OFF ratio, guanine; higher = stronger switching; co-transcriptional cleavage with and without guanine

Row | Variant | aptazyme ON/OFF ratio
1 | U7G U8G G9U U10C U11G C12U C13U | 1.4
2 | U7G U8G U10G C13G | 1.47
3 | U7G U8G U10G C13A | 1.45
4 | U7G U8G U10G C13U | 1.39
5 | U7G U8G U10A U11A C12U C13U | 1.15
6 | U7G U8G U10A U11A C12U C13G | 1.22
7 | U7G U8G U10A U11A C12U C13A | 1.44
8 | U7G U8G U10C U11G C12U | 1.23
9 | U7G U8G U10C U11G C12A | 1.41
10 | U7G U8G U10C U11G C12G | 1.43
11 | U7G U8G G9U U10G U11A C12G C13U | 1.14
12 | U7G U8G G9U U10G U11A C12G C13A | 1.08
13 | U7G U8G G9U U10G U11A C12G C13G | 1.15
14 | U7G U8G U10G C12G C13G | 1.32
15 | U7G U8G U10G C12G C13A | 1.21
16 | U7G U8G U10G C12G C13U | 1.26
17 | U7G U8G U10C U11G C12A C13U | 1.22
18 | U7G U8G U10C U11G C12A C13A | 1.15
19 | U7G U8G U10C U11G C12A C13G | 1.16
20 | U7G U8G U10C U11G C12U C13A | 1.16
21 | U7G U8G U10C U11G C12U C13G | 1.52

Row | Variant | aptazyme ON/OFF ratio
22 | U7G U8G U10C U11G C12U C13U | 1.41
23 | U7G U8G U10G | 1.37
24 | U7G U8G U10A | 2.24
25 | U7G U8G U10C | 1.38
26 | U7G U8G U10C C12U C13A | 1.47
27 | U7G U8G U10C C12U C13G | 1.42
28 | U7G U8G U10C C12U C13U | 1.39
29 | U7G U8G G9U U10C U11A C13G | 1.23
30 | U7G U8G G9U U10C U11A C13A | 1.38
31 | U7G U8G G9U U10C U11A C13U | 1.23
32 | U7G U8G U10G U11C C12U C13A | 1.12
33 | U7G U8G U10C U11C C12A C13U | 1.22
34 | U7G U8G U10C U11C C12A C13G | 1.23
35 | U7G U8G U10C U11C C12A C13A | 1.3
36 | U7G U8G U10C U11A C12G C13G | 1.23
37 | U7G U8G U10C U11A C12G C13U | 1.27
38 | U7G U8G U10C U11A C12G C13A | 1.17
39 | U7G U8G G9U U10C U11G C12A C13A | 1.12
40 | U7G U8G G9U U10C U11G C12A C13G | 1.15
41 | U7G U8G G9U U10C U11G C12A C13U | 1.28
42 | U7G U8G U10A U11G C12A C13A | 1.05

Row | Variant | aptazyme ON/OFF ratio
43 | U7G U8G U10A U11G C12A C13U | 1.37
44 | U7G U8G U10A U11G C12A C13G | 1.15
45 | U7G U8G G9U U10G C12A C13U | 1.16
46 | U7G U8G G9U U10G C12A C13G | 1.14
47 | U7G U8G G9U U10G C12A C13A | 1.09
48 | U7G U8G U10C U11G C12G C13A | 1.19
49 | U7G U8G U10C U11G C12G C13G | 1.41
50 | U7G U8G U10C U11G C12G C13U | 1.32
51 | U7G U8G G9U U10C U11A C12G C13U | 1.45
52 | U7G U8G G9U U10C U11A C12G C13G | 1.15
53 | U7G U8G G9U U10C U11A C12G C13A | 1.14
54 | U7G U8G U10G C12G | 1.3
55 | U7G U8G U10G C12A | 1.31
56 | U7G U8G U10G C12U | 1.54
57 | U7G U8G G9U U11C | 3.17
58 | U7G U8G G9U U11G | 2.02
59 | U7G U8G G9U U11A | 2.18
60 | U7G U8G G9U U10G C12G C13G | 1.15
61 | U7G U8G G9U U10G C12G C13U | 1.35
62 | U7G U8G G9U U10G C12G C13A | 1.13
63 | U7G U8G U10A C12A C13G | 1.3

Row | Variant | aptazyme ON/OFF ratio
64 | U7G U8G U10A C12A C13U | 1.33
65 | U7G U8G U10A C12A C13A | 1.18
66 | U7G U8G G9U U11G C12G | 1.41
67 | U7G U8G G9U U11G C12U | 1.45
68 | U7G U8G G9U U11G C12A | 1.32
69 | U7G U8G G9U U10G U11G C12G | 1.16
70 | U7G U8G G9U U10G U11G C12U | 1.18
71 | U7G U8G G9U U10G U11G C12A | 1.13
72 | U7G U8G G9U U11C C12G C13G | 1.17
73 | U7G U8G G9U U11C C12G C13A | 1.14
74 | U7G U8G G9U U11C C12G C13U | 1.43
75 | U7G U8G G9U U11A C13A | 1.33
76 | U7G U8G G9U U11A C13U | 1.38
77 | U7G U8G G9U U11A C13G | 1.09
78 | U7G U8G U10C U11A C13G | 1.38
79 | U7G U8G U10C U11A C13A | 1.38
80 | U7G U8G U10C U11A C13U | 1.47
81 | U7G U8G G9U U10C U11C C12G | 1.46
82 | U7G U8G G9U U10C U11C C12U | 1.53
83 | U7G U8G G9U U10C U11C C12A | 1.46
84 | U7G U8G G9U U10C U11G C12G C13U | 1.26

Reference: the RNAGym collection of RNA variant scans (doi:10.1021/acssynbio.7b00057)
